Measurements taken from article doi:10.1101/2020.08.02.233007 (bioRxiv, 2020).

Assays:
[1] = molecular target: T1, recombinant full-length UVR8 (wild type) from Sf9 cells (Arabidopsis, UniProt Q9FN03 1-440); assay: grating-coupled interferometry
T1 sequence: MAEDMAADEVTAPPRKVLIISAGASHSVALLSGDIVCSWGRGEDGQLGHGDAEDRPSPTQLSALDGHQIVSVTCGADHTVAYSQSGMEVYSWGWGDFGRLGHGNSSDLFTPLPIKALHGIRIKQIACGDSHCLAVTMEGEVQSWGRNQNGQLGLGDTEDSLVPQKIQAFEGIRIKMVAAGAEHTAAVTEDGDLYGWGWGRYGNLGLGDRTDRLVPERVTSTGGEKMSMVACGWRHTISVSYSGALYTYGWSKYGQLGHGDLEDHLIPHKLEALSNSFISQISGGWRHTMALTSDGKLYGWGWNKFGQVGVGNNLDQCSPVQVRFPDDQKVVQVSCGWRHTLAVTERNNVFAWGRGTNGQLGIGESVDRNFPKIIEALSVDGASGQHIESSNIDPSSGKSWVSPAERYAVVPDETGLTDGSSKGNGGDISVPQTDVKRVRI

[2] = molecular target: T2, recombinant full-length UVR8^W285A from Sf9 cells (Arabidopsis, UniProt Q9FN03 1-440, W285A); assay: grating-coupled interferometry
T2 sequence: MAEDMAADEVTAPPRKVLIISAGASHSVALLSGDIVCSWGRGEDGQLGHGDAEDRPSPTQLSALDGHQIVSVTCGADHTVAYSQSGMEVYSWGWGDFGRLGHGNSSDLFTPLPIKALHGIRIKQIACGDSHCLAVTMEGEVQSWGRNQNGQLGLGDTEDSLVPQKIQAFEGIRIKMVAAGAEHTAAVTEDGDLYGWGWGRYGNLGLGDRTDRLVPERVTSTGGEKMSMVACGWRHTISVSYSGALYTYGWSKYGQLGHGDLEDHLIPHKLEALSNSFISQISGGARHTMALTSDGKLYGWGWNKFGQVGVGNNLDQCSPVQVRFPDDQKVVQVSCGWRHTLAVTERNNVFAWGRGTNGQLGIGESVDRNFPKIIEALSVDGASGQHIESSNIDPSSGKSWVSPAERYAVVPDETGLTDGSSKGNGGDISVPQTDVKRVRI

[3] = molecular target: T3, recombinant full-length UVR8^W285A from Sf9 cells (Arabidopsis), Q9FN03; assay: SEC; conditions: remark: other sources report otherwise
T3 chain: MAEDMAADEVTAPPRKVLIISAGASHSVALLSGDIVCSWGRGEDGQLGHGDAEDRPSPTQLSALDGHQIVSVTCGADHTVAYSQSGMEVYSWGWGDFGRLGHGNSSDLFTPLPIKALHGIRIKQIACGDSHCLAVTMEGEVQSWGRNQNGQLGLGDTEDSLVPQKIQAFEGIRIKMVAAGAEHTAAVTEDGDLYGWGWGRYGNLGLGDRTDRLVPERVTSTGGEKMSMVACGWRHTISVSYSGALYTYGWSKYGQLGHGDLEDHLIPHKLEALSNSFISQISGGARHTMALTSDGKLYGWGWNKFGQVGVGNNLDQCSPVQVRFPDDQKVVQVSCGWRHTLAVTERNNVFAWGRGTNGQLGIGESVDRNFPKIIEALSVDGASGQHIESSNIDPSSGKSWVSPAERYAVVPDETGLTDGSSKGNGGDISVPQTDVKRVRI

cross-linking = molecular target: the molecule itself; assay: cross-linking
[4] = molecular target: T4, UVR8^W285A overexpressed in uvr8-7/Pro35S:UVR8^W285A seedlings (Arabidopsis thaliana), Q9FN03; assay: cross-linking; conditions: remark: other sources report otherwise
T4 chain: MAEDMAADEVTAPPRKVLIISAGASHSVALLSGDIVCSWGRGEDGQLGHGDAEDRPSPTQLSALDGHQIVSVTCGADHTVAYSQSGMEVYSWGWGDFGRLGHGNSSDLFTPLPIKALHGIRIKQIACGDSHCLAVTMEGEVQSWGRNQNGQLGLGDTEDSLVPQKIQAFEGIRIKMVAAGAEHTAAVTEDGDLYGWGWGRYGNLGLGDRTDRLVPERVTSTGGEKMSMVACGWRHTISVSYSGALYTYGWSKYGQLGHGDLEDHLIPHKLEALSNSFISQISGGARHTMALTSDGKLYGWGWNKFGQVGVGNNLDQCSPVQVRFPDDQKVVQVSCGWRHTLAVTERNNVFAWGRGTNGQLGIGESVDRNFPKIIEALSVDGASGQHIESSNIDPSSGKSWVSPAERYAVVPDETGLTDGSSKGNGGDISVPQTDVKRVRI

B1: COP1 WD40 domain (COP1^349–675), recombinant from Sf9 cells (domain or fragment)
chain: TFTRYSRLRVIAEIRHGDIFHSANIVSSIEFDRDDELFATAGVSRCIKVFDFSSVVNEPADMQCPIVEMSTRSKLSCLSWNKHEKNHIASSDYEGIVTVWDVTTRQSLMEYEEHEKRAWSVDFSRTEPSMLVSGSDDCKVKVWCTRQEASVINIDMKANICCVKYNPGSSNYIAVGSADHHIHYYDLRNISQPLHVFSGHKKAVSYVKFLSNNELASASTDSTLRLWDVKDNLPVRTFRGHTNEKNFVGLTVNSEYLACGSETNEVYVYHKEITRPVTSHRFGSPDMDDAEEEAGSYFISAVCWKSDSPTMLTANSQGTIKVLVLAA
Does B1 bind [1]?
Result: binds

Does B1 bind [2]?
Result: binds

B2: recombinant full-length UVR8^W285A from Sf9 cells, Q9FN03 1-440 (natural protein)
chain: MAEDMAADEVTAPPRKVLIISAGASHSVALLSGDIVCSWGRGEDGQLGHGDAEDRPSPTQLSALDGHQIVSVTCGADHTVAYSQSGMEVYSWGWGDFGRLGHGNSSDLFTPLPIKALHGIRIKQIACGDSHCLAVTMEGEVQSWGRNQNGQLGLGDTEDSLVPQKIQAFEGIRIKMVAAGAEHTAAVTEDGDLYGWGWGRYGNLGLGDRTDRLVPERVTSTGGEKMSMVACGWRHTISVSYSGALYTYGWSKYGQLGHGDLEDHLIPHKLEALSNSFISQISGGARHTMALTSDGKLYGWGWNKFGQVGVGNNLDQCSPVQVRFPDDQKVVQVSCGWRHTLAVTERNNVFAWGRGTNGQLGIGESVDRNFPKIIEALSVDGASGQHIESSNIDPSSGKSWVSPAERYAVVPDETGLTDGSSKGNGGDISVPQTDVKRVRI
B2 was tested. Which stoichiometry N [3] did it give?
Its stoichiometry N is 2.

B3: UVR8^W285F overexpressed in uvr8-7/Pro35S:UVR8^W285F seedlings (natural protein)
chain: MAEDMAADEVTAPPRKVLIISAGASHSVALLSGDIVCSWGRGEDGQLGHGDAEDRPSPTQLSALDGHQIVSVTCGADHTVAYSQSGMEVYSWGWGDFGRLGHGNSSDLFTPLPIKALHGIRIKQIACGDSHCLAVTMEGEVQSWGRNQNGQLGLGDTEDSLVPQKIQAFEGIRIKMVAAGAEHTAAVTEDGDLYGWGWGRYGNLGLGDRTDRLVPERVTSTGGEKMSMVACGWRHTISVSYSGALYTYGWSKYGQLGHGDLEDHLIPHKLEALSNSFISQISGGFRHTMALTSDGKLYGWGWNKFGQVGVGNNLDQCSPVQVRFPDDQKVVQVSCGWRHTLAVTERNNVFAWGRGTNGQLGIGESVDRNFPKIIEALSVDGASGQHIESSNIDPSSGKSWVSPAERYAVVPDETGLTDGSSKGNGGDISVPQTDVKRVRI
B3 was tested. Which “stoichiometry N” value (cross-linking) did it give?
The value was 2.

B4: UVR8^W285A overexpressed in uvr8-7/Pro35S:UVR8^W285A seedlings, Q9FN03 1-440 (natural protein)
chain: MAEDMAADEVTAPPRKVLIISAGASHSVALLSGDIVCSWGRGEDGQLGHGDAEDRPSPTQLSALDGHQIVSVTCGADHTVAYSQSGMEVYSWGWGDFGRLGHGNSSDLFTPLPIKALHGIRIKQIACGDSHCLAVTMEGEVQSWGRNQNGQLGLGDTEDSLVPQKIQAFEGIRIKMVAAGAEHTAAVTEDGDLYGWGWGRYGNLGLGDRTDRLVPERVTSTGGEKMSMVACGWRHTISVSYSGALYTYGWSKYGQLGHGDLEDHLIPHKLEALSNSFISQISGGARHTMALTSDGKLYGWGWNKFGQVGVGNNLDQCSPVQVRFPDDQKVVQVSCGWRHTLAVTERNNVFAWGRGTNGQLGIGESVDRNFPKIIEALSVDGASGQHIESSNIDPSSGKSWVSPAERYAVVPDETGLTDGSSKGNGGDISVPQTDVKRVRI
With B4 as the binder, how does the stoichiometry N [4] read?
Its stoichiometry N is 2.
